We go through 19 molecules from patent US20230272055A1 (Incyte, published 2023).

The labels stand for the following.
B1: anti-mutCALR antibody clone 41 (antibody, human IgG1, lambda, V domains shown)
VH: EVQLVQSGAEVKKPGASVKVSCKVSGYTLTELSMHWVRQAPGKGLEWMGLVDPEDGETIYAQKFQGRVTMTEDTSTDTAYMELSSLRSEDTAVYYCAREEWSGDGDDAFDIWGQGTMVTVSS
VL: QSVLTQPPSVSAAPGQKVTISCSGSSSNIGSYSVSWYQQLPGTAPKLLIYDNNKRPSGIPDRFSGSNSGTSATLGITGLQTGDEADYYCGTWDSSLSAWVFGGGTKLTVLG
notes: human IgG1; group 4
B2: anti-mutCALR antibody clone 42 (antibody, human IgG1, lambda, V domains shown)
VH: EVQLVQSGAEVKKPGASVKVSCKVSGYTLTELSMHWVRQAPGKGLEWMGLVDPEDGETIYAQKFQGRVTMTEDTSTDTAYMELSSLRSEDTAVYYCAREEWSGDGDDAFDIWGQGTMVTVSS
VL: QSVLTQPPSVSAAPGQKVTISCSGSSSNIGSYSVSWYQQLPGTAPKLLIYDDNKRPSGIPDRFSGSNSGTSATLSITGLQTGDEADYYCGTWDSSLSAWVFGGGTKLTVLG
notes: human IgG1; group 4
B3: anti-mutCALR antibody clone 40 (antibody, human IgG1, lambda, V domains shown)
VH: EVQLVQSGAEVKKPGASVKVSCKVSGYTLTESSMHWVRQAPGKGLEWMGLVDPEDGETIYAQKFQGRVTMTEDTSTDTAYMELSSLRSEDTAVYYCAREEWSGDGDDAFDIWGQGTMVTVSS
VL: QSVLTQPPSVSAAPGQKVTISCSGSSSNIGSYSVSWYQQLPGTAPKLLIYDNNKRPSGIPDRFSGSNSGTSATLGITGLQTGDEADYYCGTWDSSLSAWVFGGGTKLTVLG
notes: human IgG1; group 4
B4: anti-mutCALR antibody clone 52 (antibody, human IgG1, kappa, V domains shown)
VH: EVQLVQSGAEVKKPGASVKVSCKVSGYTLTELSMHWVRQAPGKGLEWMGLVDPEDGETIYAEKFQGRVTITADTSTDTAYMELSSPRSEDTAVYYCATTIGDDYFDYWGQGTLVTVSS
VL: not shown
B5: anti-mutCALR antibody clone 33 (antibody, human IgG1, lambda, V domains shown)
VH: QVQLVQSGAEVKKPGATVKISCKVSGYSFTDYFIHWVQQAPGKGLAWVGLVDPEDGETIYAEKFQGRVTITADTSTDTAYMELSSLRSEDTAVYYCATPGGILTDPDAFDIWGQGTMVTVSS
VL: QSALTQPRSVSGSPGQSVTISCAGTGSDVGGYNHVSWYQHHPGKAPKLMIYDVNKRPSGVPDRFSGSKSGNTASLTISGLQAEDEADYYCSSYIPSSTRWVFGGGTKLTVLG
notes: human IgG1; group 2
B6: anti-mutCALR antibody clone 34 (antibody, human IgG1, lambda, V domains shown)
VH: QVQLVQSGAEVKKPGATVKISCKVSGYSFTDYFIHWVQQAPGKGLAWVGLVDPEDGETIYAEKFQGRVTITADTSTDTAYMELSSLRSEDTAVYYCATPGGILTDPDAFDIWGQGTMVTVSS
VL: QSALTQPASVSGSPGQSITISCTGTSSDVGGYNYVSWYQQHPGKAPKLMIYEVSNRPSGVSNRFSGSKSGNTASLTISGLQAEDEADYYCSSYTSSSTYVFGTGTKVTVLG
notes: human IgG1; group 2
B7: anti-mutCALR antibody clone 48 (antibody, human IgG1, lambda, V domains shown)
VH: EVQLVQSGAEVKKPGSSVKVSCKASGGTFSSYAISWVRQAPGQGLEWMGGIIPIFGTANYAQKFQGRVTITADESTSTAYMELSSLRSEDTAVYYCASSPLRGSGWYWHYYYGMDVWGQGTTVTVSS
VL: SYVLTQPPSVSVAPGKTARITCGGNNIGSKSVHWYQQKPGQAPVLVIYQDRKRPSGIPERFSGSNSGNTATLTISGTQAMDEADYYCQAWDSSTAVFGGGTKLTVLG
B8: anti-mutCALR antibody clone 49 (antibody, human IgG1, lambda, V domains shown)
VH: EVQLVQSGAEVKKPGSSVKVSCKASGGTFSSYAISWVRQAPGQGLEWMGGIIPIFGTANYAQKFQGRVTITADESTSTAYMELSSLRSEDTAVYYCASSPLRGSGWYWHYYYGMDVWGQGTTVTVSS
VL: SYELTQPPSVSVAPGKTARITCGGNNIRAKHVHWYQQKPGQSPVLVIYQDSKRPSGIPERFSGSNSGSTATLTISRVEAGDEADYYCQVWDSSTVVFGGGTKLTVLG
B9: anti-mutCALR antibody clone 43 (antibody, human IgG1, lambda, V domains shown)
VH: EVQLVQSGAEVKKPGASVKVSCKASGGTFSSYAISWVRQAPGQGLEWMGGIIPIFGTANYAQKFQGRVTITADESTSTAYMELSSLRSEDTAVYYCASSPLRGSGWYWHYYYGMDVWGQGTTVTVSS
VL: not shown
B10: anti-mutCALR antibody clone 47 (antibody, human IgG1, lambda, V domains shown)
VH: EVQLVQSGAEVKKPGSSVKVSCKASGGTFSSYAISWVRQAPGQGLEWMGGIIPIFGTANYAQKFQGRVTITADESTSTAYMELSSLRSEDTAVYYCASSPLRGSGWYWHYYYGMDVWGQGTTVTVSS
VL: SYELTQPPSVSVAPGKTARITCGGNKIGTKSVHWYQQKPGQAPVLVIYRDSNRPSGIPERFSGSNSGNTATLTISRAQAGDEADYYCQVWDSSTVVFGGGTKLTVLG
B11: anti-mutCALR antibody clone 44 (antibody, human IgG1, lambda, V domains shown)
VH: EVQLVQSGAEVKKPGSSVKVSCKASGGTFSSYAISWVRQAPGQGLEWMGGIIPIFGTANYAQKFQGRVTITADESTSTAYMELSSLRSEDTAVYYCASSPLRGSGWYWHYYYGMDVWGQGTTVTVSS
VL: SYVLTQPPSVSAAPGKTARISCGGNNIRSKSVHWYQQKAGQAPVLVIYQDSKRPSGIPERFSGSNSGNTATLTISGTQAMDEADYYCQAWDSNTVVFGGGTKLTVLG
B12: anti-mutCALR antibody clone 46 (antibody, human IgG1, lambda, V domains shown)
VH: QVQLVQSGAEVKKPGSSVKVSCKASGGTFSSYAISWVRQAPGQGLEWMGGIIPIFGTANYAQKFQGRVTITADESTSTAYMELSSLRSEDTAVYYCASSPLRGSGWYWHYYYGMDVWGQGTTVTVSS
VL: SYELTQPPSVSVAPGKTARITCGGNNIRSKSVHWYQQKPGQAPVLVVYQDSKRPSGIPERFSGSNSGNTATLTISGTQAMDEADYYCQVWDSSTAVFGGGTKLTVLG
B13: anti-mutCALR antibody clone 50 (antibody, human IgG1, lambda, V domains shown)
VH: QMQLVQSGAEVKKPGSSVKVSCKASGGTFSSYAISWVRQAPGQGLEWMGGIIPIFGTANYAQKFQGRVTITADESTSTAYMELSSLRSEDTAVYYCASSPLRGSGWYWHYYYGMDVWGQGTTVTVSS
VL: SYVLTQPPSVSVAPGKTARITCGGNNIGTKSVHWYQQKPGQSPVLVIYQDRKRPSGIPERFSGSNSGNTATLTISGTQAMDEADYYCQVWDSSTEVFGGGTKLTVLG
B14: anti-mutCALR antibody clone 51 (antibody, human IgG1, lambda, V domains shown)
VH: EVQLVQSGAEVKKPGSSVKVSCKASGGTFSSYAISWVRQAPGQGLEWMGGIIPIFGTANYAQKFQGRVTITADESTSTAYMELSSLRSEDTAVYYCASSPLRGSGWYWHYYYGMDVWGQGTTVTVSS
VL: SYELTQPPSVSVAPGKTARITCGGNKIGTKSVHWYQQKPGQAPVLVIYQDSKRPSGIPERFSGSNSGNTATLTISGTQAMDEADYYCQAWGSSTVVFGGGTKLTVLG
B15: anti-mutCALR antibody clone 45 (antibody, human IgG1, lambda, V domains shown)
VH: EVQLVQSGAEVKKPGSSVKVSCKASGGTFSSYAISWVRQAPGQGLEWMGGIIPIFGTANYAQKFQGRVTITADESTSTAYMELSSLRSEDTAVYYCASSPLRGSGWYWHYYYGMDVWGQGTTVTVSS
VL: SYVLTQPLSVSVAPGQTARITCGGNNIGRKSVHWYQQKPGQAPVLVIYRDSNRPSGIPERFSGSNSGNTATLTISRAQAGDEADYYCQVWDSSTVVFGGGTKLTVLG
B16: anti-mutCALR antibody clone 30 (antibody, human IgG1, lambda, V domains shown)
VH: EVQLVQSGAEVKKPGASVKVSCKVSGYTLTELSMQWVRQAPGKGLEWMGGFDPDDGETMYAEKFQGRLTVTEDTSTDTVYMELRSLTSEDTALYFCATSPGYDFFDYWGQGTLVTVSS
VL: SYVLTQPPSVSVAPGKTATITCGGNNIGTKSVHWYQQKPGQAPVLVVYDDSDRPSGIPERFSGSNSGNTATLTINRVEAGDEADYYCQVWDSSNDLLIFGGGTKLTVLG
notes: human IgG1; group 1
B17: anti-mutCALR antibody clone 11 (antibody, human IgG1, lambda, V domains shown)
VH: EVRLVQSGAEVKKPGASVKVSCKVSGYTLTELSMQWVRQAPGKGLEWMGGFDPDDGETMYAEKFQGRLTVTEDTSTDTVYMELRSLTSEDTALYFCATSPGYDFFDYWGQGTLVTVSS
VL: QSALTQPRSVSGSPGQSVTISCTGTSSDVGGYNYVSWYQQHPGKAPKLMIYDVSKRPSGVPDRFSGSNSGNTATLTINRVEAGDEADYYCQVWDSSNDLLIFGGGTKLTVLG
notes: human IgG1; group 1
B18: anti-mutCALR antibody clone 38 (antibody, human IgG1, kappa, V domains shown)
VH: EVQPVQSGAEVKKPGSSVKVSCKASGGTFSSYAISWVRQAPGQGLEWMGLVDPEDGETIYAEKFRGRVTITADTSTDTAYMELSSLRSEDTAVYYCATEESYGPWGQGTLVTVSS
VL: DIQLTQSPSSLSASVGDRVTITCQASQDISNYLNWYQQKPGKAPKLLIYDASNLETGVPSRFSGSGSGTEFTLTISSLQPEDFATYYCQQLNSYPLTFGGGTKLEIKR
notes: human IgG1; group 3
B19: anti-mutCALR antibody clone 39 (antibody, human IgG1, kappa, V domains shown)
VH: EVQLVQSGAEVKKPGSSVKVSCKASGGTFSSYAISWVRQAPGQGLEWMGLVDPEDGETIYAEKFQGRVTITADTSTDTAYMELSSLRSEDTAVYYCATEESYGPWGQGTLVTVSS
VL: DIQLTQSPSSLSASVGDRVTITCQASQDISNYLDWYQQKPGKAPKLLIYDASNLETGVPSRFSGSGSGTEFTLTISSLQPEDFATYYCQQLNSYPLTFGGGTKLEIKR
notes: human IgG1; group 3

The target in this experiment is MBP protein (UniProt P0AEX9 27-392 = MBP). In words: SPR (Biacore 8K), antibody captured on anti-human IgG (Fc), MBP injected. How it is done:
Experiment 1: Recombinant MBP-mutCALR Type 1 fusion protein was custom made at Cepter (cepterbiopartners.com). Data for the interaction of antibodies with recombinant MBP-mutCALR Type 1 fusion protein were collected at 25° C. on a Biacore 8K instrument (Cytiva, Marlborough, Mass.), and all reagents were obtained from Cytiva unless otherwise specified. The experiments were conducted using Tris-buffered saline (pH 7.2), 0.005% Surfactant P20, 1 mM CaCl₂) as running buffer. To prepare the capture surfaces, anti-human IgG (Fc) antibodies (Product #29234600) was amine-coupled onto a CM4 chip (Product #BR100534) under standard conditions using an Amine Coupling Kit (Product #BR100050). […] The kinetics parameters were obtained by applying 1:1 binding model to fit the data from multiple-cycle injection experiments using Biacore Insight Evaluation software.
For orientation: Surface plasmon resonance follows binding to a sensor surface in real time, without labels.
B1: the binding result is listed as “no binding (tested: 250 nM)”. In the case of B2, the binding result is “no binding (tested: 250 nM)”. In the case of B3 it was “no binding (tested: 250 nM)”; in that of B4, “no binding (tested: 250 nM)”. B5: the binding result was “no binding (tested: 250 nM)”. For B6 the value was “no binding (tested: 250 nM)”. For B7 the value was “no binding (tested: 250 nM)”; for B8, “no binding (tested: 250 nM)”; for B9, “no binding (tested: 250 nM)”. For B10, the binding result is “no binding (tested: 250 nM)”. On to B11, for which the binding result is listed as “no binding (tested: 250 nM)”.

In the case of B12, the binding result is reported as “no binding (tested: 250 nM)”. Regarding B13, the binding result was “no binding (tested: 250 nM)”. As to B14, the binding result is recorded as “no binding (tested: 250 nM)”.

B15: the binding result is on record as “no binding (tested: 250 nM)”. As for B16, the binding result was “no binding (tested: 250 nM)”. For B17 the value was “no binding (tested: 250 nM)”; for B18, “no binding (tested: 250 nM)”. For the molecule B19, the binding result was “no binding (tested: 250 nM)”.
